Reference: patent US7192735B2, “Phosphopantetheinyl transferases and uses thereof” (President & Fellows of Harvard College, priority 1995, dated 2007)
Where “and” joins values, the source holds several entries; their conditions need not be identical. Equal values may be shown once. Entries after “also recorded” stand apart in the source; their conditions may differ. Read-outs that look alike come from different tables or passages of the source.

Legend:
EntF = molecular target: T1, EntF (Escherichia coli, UniProt P11454); assay: [3H]-4'-phosphopantetheine incorporation into EntF; format: biochemical, E. coli; settings: for phosphopantetheinylation of EntF: FIG. 12; for time course of modification of EntF: EntD 100 nM, ACPS and o195 at 15-fold higher concentrations, FIG. 14A
T1 construct: made in house
Procedure: A time course of EntD-catalyzed incorporation of radiolabel into EntF was performed.

SrfB1 [1] = molecular target: T2, SrfB1 (Bacillus subtilis, UniProt Q04747); assay: [14C] amino acid activation by holo-SrfB1 formed with Sfp; format: biochemical; settings: 2 μM apo-SrfB1, 1.3 μM Sfp, 200 μM CoASH, FIG. 15
T2 construct: hexa-histidine (His6, from pPROEX-1) (N); made in house; host or cells: E. coli AG1574 (plasmid pML 118)
Procedure: The reaction was performed as follows. Apo-SrfB1 (2 μM) was incubated with 200 μM CoASH, 75 mM Tris.HCl pH 8.0, 10 mM MgCl2, 25 mM DTT and 1.3 μM Sfp for 15 min at 37° C. to generate holo-SrfB1. To the SrfB1-Sfp reaction mixture, unlabeled amino acid (valine or aspartic acid) was added to 90 μM final concentration. ATP was added to a final concentration of 2 mM, followed by 0.5 μCi [^14C]Val (281 Ci/mol) or [^14C]Asp (207 Ci/mol). The reaction (115 μL) was incubated for 15 min at 37° C., then stopped by the addition of 800 μL 10% TCA with 15 μL of a 25 mg/mL BSA solution as carrier. The precipitate was collected by centrifugation, washed with 10% TCA, dissolved in 150 μL Tris base, and then counted by liquid scintillation.
Target sequence in this assay (Q04747 92-1307): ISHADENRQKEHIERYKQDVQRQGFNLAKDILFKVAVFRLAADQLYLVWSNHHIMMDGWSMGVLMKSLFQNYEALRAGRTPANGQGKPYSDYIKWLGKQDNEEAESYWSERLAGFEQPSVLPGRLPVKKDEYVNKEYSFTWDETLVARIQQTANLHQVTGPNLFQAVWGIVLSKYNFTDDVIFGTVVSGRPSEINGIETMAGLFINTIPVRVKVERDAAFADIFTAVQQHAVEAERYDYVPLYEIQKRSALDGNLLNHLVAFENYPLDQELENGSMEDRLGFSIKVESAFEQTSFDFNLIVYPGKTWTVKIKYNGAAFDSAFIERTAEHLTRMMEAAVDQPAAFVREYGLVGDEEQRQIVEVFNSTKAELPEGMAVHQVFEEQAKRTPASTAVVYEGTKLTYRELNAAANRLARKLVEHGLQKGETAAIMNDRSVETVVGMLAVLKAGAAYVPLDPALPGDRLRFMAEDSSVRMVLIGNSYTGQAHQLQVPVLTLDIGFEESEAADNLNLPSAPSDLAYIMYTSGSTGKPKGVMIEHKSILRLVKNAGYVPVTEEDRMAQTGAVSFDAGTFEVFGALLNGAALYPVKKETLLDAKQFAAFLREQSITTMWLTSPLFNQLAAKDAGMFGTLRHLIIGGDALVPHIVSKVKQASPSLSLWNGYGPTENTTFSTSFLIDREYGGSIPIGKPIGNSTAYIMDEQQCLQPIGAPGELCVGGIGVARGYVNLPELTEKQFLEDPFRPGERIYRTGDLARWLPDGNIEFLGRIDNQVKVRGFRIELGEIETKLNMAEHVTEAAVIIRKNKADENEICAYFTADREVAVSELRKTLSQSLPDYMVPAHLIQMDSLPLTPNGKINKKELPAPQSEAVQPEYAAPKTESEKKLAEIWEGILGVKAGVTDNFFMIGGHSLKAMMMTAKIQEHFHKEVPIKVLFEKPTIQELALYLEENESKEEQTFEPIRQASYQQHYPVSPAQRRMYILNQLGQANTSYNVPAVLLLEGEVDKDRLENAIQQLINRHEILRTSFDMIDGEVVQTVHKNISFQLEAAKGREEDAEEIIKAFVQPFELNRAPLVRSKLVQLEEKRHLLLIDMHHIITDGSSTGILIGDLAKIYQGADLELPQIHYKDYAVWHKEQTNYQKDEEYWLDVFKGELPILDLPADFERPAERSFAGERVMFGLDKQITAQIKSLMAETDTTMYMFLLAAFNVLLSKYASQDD

[2] = system: His6-PCP (peptidyl carrier protein domain of TycA); assay: [3H]-4'-phosphopantetheine transfer radioassay, His6-PCP substrate; settings: for phosphopantetheinylation of His6-PCP: 25 μM His6-PCP, 60 min at 37° C., FIG. 11
SrfB1 [3] = molecular target: T2, SrfB1; assay: [3H]-4'-phosphopantetheine incorporation into SrfB1; format: biochemical; settings: FIG. 12
Target sequence in this assay (P39135 whole entry): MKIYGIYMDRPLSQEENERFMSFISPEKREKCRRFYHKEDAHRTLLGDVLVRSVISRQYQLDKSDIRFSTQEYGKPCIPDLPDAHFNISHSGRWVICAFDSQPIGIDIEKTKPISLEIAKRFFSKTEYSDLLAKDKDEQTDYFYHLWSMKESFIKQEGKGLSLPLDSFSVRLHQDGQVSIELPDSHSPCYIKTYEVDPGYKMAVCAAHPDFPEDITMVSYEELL
Target sequence in this assay (Q04747 92-1307): as the sequence (Q04747 92-1307) above

E. coli FAS apo-ACP = E. coli FAS apo-ACP (Escherichia coli, UniProt P0A6A8); settings: for phosphopantetheinylation of ACP: 25 μM ACP, 60 min at 37° C., FIG. 11
apo-ACP [4] = molecular target: T3, apo-ACP (Escherichia coli, UniProt P0A6A8+P24224); settings: for Km: steady-state kinetics, [3H]CoA radioassay
apo-ACP [5] = molecular target: T3, apo-ACP; settings: 50 μM apo-ACP, 1.8 μM ACPS, 210 μM [3H]CoA, 36 hour, 37° C., replicates
Streptomycete ACPs = assay: modification of apo-form of Streptomycete ACPs; format: biochemical
apo-Dcp = assay: in vitro phosphopantetheinylation of D-Alanyl carrier protein; format: biochemical, Lactobacillus casei
Procedure: In another example, varying concentrations of apo-Dcp were incubated with ACPS at 37° C. to determine extent of phosphopantetheinylation.
The assays were incubated overnight at 37° C.
The [^3H] holo-Dcp formed was quantitated by dividing dpm by specific activity of pantetheinyl moiety of CoA which is equal to 4.83×10^14 dmp/mol.

His6-PCP (peptidyl carrier protein domain of TycA), sequence (P09095 528-602): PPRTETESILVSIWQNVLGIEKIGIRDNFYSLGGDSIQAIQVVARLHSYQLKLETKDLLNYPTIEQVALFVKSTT
T1 sequence (P11454 whole entry): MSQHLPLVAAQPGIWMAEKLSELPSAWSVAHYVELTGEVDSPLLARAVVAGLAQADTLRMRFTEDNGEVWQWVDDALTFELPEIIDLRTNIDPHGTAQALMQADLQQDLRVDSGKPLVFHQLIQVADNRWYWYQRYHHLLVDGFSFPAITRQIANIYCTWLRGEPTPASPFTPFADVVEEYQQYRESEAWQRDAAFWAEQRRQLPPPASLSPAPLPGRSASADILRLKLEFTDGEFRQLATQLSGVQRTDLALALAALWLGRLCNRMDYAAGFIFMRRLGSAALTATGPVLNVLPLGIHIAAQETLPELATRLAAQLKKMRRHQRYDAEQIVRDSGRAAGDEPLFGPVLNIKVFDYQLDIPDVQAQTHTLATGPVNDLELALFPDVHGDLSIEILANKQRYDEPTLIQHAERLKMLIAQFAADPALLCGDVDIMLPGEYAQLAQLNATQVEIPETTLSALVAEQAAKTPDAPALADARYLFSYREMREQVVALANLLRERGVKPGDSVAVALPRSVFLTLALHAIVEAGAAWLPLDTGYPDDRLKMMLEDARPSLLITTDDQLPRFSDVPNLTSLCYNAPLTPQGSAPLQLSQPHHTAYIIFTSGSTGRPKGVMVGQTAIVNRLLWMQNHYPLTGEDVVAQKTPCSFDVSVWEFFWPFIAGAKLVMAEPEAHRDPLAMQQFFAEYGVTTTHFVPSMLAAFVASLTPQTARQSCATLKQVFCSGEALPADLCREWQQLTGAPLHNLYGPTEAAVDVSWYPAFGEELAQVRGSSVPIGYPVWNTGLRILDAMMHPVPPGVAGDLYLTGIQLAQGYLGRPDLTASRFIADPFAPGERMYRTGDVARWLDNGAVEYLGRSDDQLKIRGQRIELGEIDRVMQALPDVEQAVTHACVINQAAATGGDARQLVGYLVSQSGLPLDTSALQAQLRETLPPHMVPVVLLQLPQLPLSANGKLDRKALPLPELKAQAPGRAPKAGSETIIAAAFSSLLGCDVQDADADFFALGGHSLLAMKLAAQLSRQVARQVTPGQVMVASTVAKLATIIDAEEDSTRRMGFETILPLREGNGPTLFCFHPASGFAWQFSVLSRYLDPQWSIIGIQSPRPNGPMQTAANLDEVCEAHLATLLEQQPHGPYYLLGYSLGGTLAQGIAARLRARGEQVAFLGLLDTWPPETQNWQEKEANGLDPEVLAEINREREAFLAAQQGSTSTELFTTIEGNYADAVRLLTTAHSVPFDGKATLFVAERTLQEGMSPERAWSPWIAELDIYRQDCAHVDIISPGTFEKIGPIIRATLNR
E. coli FAS apo-ACP, sequence (P0A6A8 2-78): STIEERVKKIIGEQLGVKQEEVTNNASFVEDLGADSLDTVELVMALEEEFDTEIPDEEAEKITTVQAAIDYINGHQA
T3 sequence (P0A6A8 2-78, one chain of several): as the sequence (P0A6A8 2-78) above

B1: Sfp: B. subtilis protein (26.1 kD) involved in surfactin biosynthesis, shown to be a phosphopantetheinyl transferase (protein)
chain: VIGAFDSQPIGIDIEKTKPISLEIAKRFFSKTEYSDLLAKDKDEQTDYFYHLWSMKESFIKQEGKGLSLPLDSFSVRLHQDGQVSIELPDSHSPCYIKTYEVDPGYKMAVCAAHPDFPEDITMVSYEELL
- phosphopantetheinylation of EntF (EntF): can catalyze modification
- increase of [14C]-L-valine-holo-SrfB1 covalent complex following incubation with Sfp (SrfB1 [1]): about 14 fold
- phosphopantetheinylation of PCP at different substrate concentrations ([2]; 13 nM Sfp, 15 minute reaction, FIG. 13): capable of phosphopantetheinylating a substrate, such as PCP, in a wide range of concentrations
- phosphopantetheinylation of His6-PCP [2]: capable of transferring phosphopantetheine groups; also recorded: efficiently catalyzes modification
- phosphopantetheinylation of SrfB1 (SrfB1 [3]): capable of phosphopantetheinylating; also recorded: efficiently catalyzes modification

B2: EntD: E. coli protein (23.6 kD) involved in enterobactin biosynthesis, phosphopantetheinyl transferase (protein)
chain: SRQPIGIDIEEIFSVQTARELTDNIITPAEHERLADCGLAFSLALTLAFSAKESAFKASEIQTDAGFLDYQIISWNKQQVIIHRENEMFAVHWQIKEKIVITLCQHD
- time course of modification of EntF (EntF): modified effectively
- phosphopantetheinylation of EntF (EntF): capable of phosphopantetheinylating
- phosphopantetheinylation of ACP (E. coli FAS apo-ACP): capable of transferring phosphopantetheine groups
- phosphopantetheinylation of His6-PCP [2]: capable of transferring phosphopantetheine groups

B3: o195: E. coli ORF protein of unknown function, homologous to ACPS, shown to phosphopantetheinylate substrates (protein)
chain: MYRIVLGKVSTLSAAPLPPGLREQAPQGPRRERWLAGRALLSHTLSPLPEIIYGEQGKPAFAPEMPLWFNLSHSGDDIALLLSDEGEVGCDIEVIRPRANWRWLANAVFSLGEHAEMDAVHPDQQLEMFWRIWTRKEAIVKQRGGSAWQIVSVDSTYHSSLSVSHCQLENLSLAICTPTPFTLTADSVQWIDSVN
- time course of modification of EntF (EntF): almost no modification
- phosphopantetheinylation of ACP (E. coli FAS apo-ACP): capable of transferring phosphopantetheine groups
- phosphopantetheinylation of His6-PCP [2]: capable of transferring phosphopantetheine groups

B4: ACPS: recombinant E. coli holo-acyl carrier protein synthase, 14 kDa dpj gene product overproduced in E. coli BL21(DE3)pDPJ (protein)
chain: MAILGLGTDIVEIARIEAVIARSGDRLARRVLSDNEWAIWKTHHQPVRFLAKRFAVKEAAAKAFGTGIRNGLAFNQFEVFNDELGKPRLRLWGEALKLAEKLGVANMHVTLADERHYACATVIIES
- time course of modification of EntF (EntF): almost no modification
- time course of modification of apo-ACP (E. coli FAS apo-ACP; FIG. 14B): almost exclusive modification
- substrate inhibition at apo-ACP concentrations (apo-ACP [4]): greater than 2 μM
- specific activity (apo-ACP [4]; purification from E. coli BL21(DE3)pDPJ, fraction Crude extract): 200 mU · mg^−1
- specific activity (apo-ACP [4]; purification from E. coli BL21(DE3)pDPJ, fraction DE-52): 250 mU · mg^−1
- specific activity (apo-ACP [4]; purification from E. coli BL21(DE3)pDPJ, fraction SP-Sepharose): 320 mU · mg^−1
- specific activity (apo-ACP [4]; purified protein, >95% purity): 320 mU/mg
- Km (apo-ACP [4]; read-out: Km value for CoA): 50 µM
- Km (apo-ACP [4]; read-out: Km value for apo-ACP (upper limit)): ≤ 1 µM
- apparent kcat value (apo-ACP [4]; saturating CoA and 50 μM apo-ACP): about 10 min^−1
- radioactivity incorporated into the protein fraction, ACP + ACPS (apo-ACP [5]): 2.21 × 10^6 (±.63%) and 2.13 × 10^6 (±.65%) and 2.20 × 10^6 (±.64%)
- modification of apo-form of Streptomycete ACPs (frenolicin, granaticin, oxytetracycline, tetracenomycin) (Streptomycete ACPs): modifies the apo-form
- phosphopantetheinylation of Dcp (apo-Dcp): capable of phosphopantetheinylating Dcp
- radioactivity incorporated into the protein fraction, Dcp + ACPS (apo-Dcp; 40 μM apo-Dcp, 1.8 μM ACPS, 210 μM [3H]CoA, 36 hour, 37° C., replicates): 1.04 × 10^6 (±0.93%) and 1.00 × 10^6 (±0.77%) and 0.98 × 10^6 (±0.95%)
- amount of holo-Dcp formed versus amount of apo-Dcp (apo-Dcp; varying apo-Dcp, 1.8 μM ACPS, overnight at 37° C., FIG. 4): increases linearly
